Results on 33 molecules are retold here after patent US20240401063, “Aptamer for DKK1 and Use Thereof” (APTACURE THERAPEUTICS LIMITED, published 2024).

To fix the notation:
T1: DKK1 (Dickkopf-1), full-length (Homo sapiens, UniProt O94907 SEQ:32-266)
T1 sequence: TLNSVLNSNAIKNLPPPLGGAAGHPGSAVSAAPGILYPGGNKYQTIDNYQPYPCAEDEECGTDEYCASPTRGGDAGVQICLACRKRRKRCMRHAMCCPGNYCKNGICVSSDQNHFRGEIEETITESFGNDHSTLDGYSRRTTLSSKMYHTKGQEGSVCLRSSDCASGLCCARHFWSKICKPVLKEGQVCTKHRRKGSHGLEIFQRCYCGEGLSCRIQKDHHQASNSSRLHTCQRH

B1: Aptdkk-9 (ssDNA)
DNA: CGTACGGTCGACGCTAGCTACACCCCTTCCTGTTCTATTCTTCCTGCCTTGCGGGATCCGAGCTCCACGTG
B2: Aptdkk-18 (ssDNA)
DNA: CGTACGGTCGACGCTAGCTCCACCCAATTCTCTTCCCGTCTTTCCTGCACATGGGATCCGAGCTCCACGTG
B3: Aptdkk-17 (ssDNA)
DNA: CGTACGGTCGACGCTAGCTACTTCTCCACGTCTCTTTCCCTGTCCCCTTCGCAGGATCCGAGCTCCACGTG
B4: Aptdkk-8 (ssDNA)
DNA: CGTACGGTCGACGCTAGCTGCCACCCCTGTTTTCCACATTTTCCTCGACCGCGGGATCCGAGCTCCACGTG
B5: Aptdkk-12 (ssDNA)
DNA: CGTACGGTCGACGCTAGCTCCCCTCATAATCCGACTTTTTCCCTCCCCCTCCCGGATCCGAGCTCCACGTG
B6: Aptdkk-1 (ssDNA)
DNA: CGTACGGTCGACGCTAGCTGTGGTTATGGGGTTGGTGGGTGGGTTCTTACGGAGGATCCGAGCTCCACGTG
B7: Aptdkk-13 (ssDNA)
DNA: CGTACGGTCGACGCTAGCTGGTGTGGGGGTGGGTGGTGGGTTGTATCGTTTGAGGATCCGAGCTCCACGTG
B8: Aptdkk-6 (ssDNA)
DNA: CGTACGGTCGACGCTAGCCCGGTTGCAATGGTTGGGGTGGTTGGTTTTGCATGGGATCCGAGCTCCACGTG
B9: Aptdkk-19 (ssDNA)
DNA: CGTACGGTCGACGCTAGCATAGGTTGGGTAGGTTGGTTGCTTTTTTTGTCGCGGGATCCGAGCTCCACGTG
B10: Aptdkk-16 (ssDNA)
DNA: CGTACGGTCGACGCTAGCTACACGCCATCGGTGCCCTTTTCTCTTCTTGTCTGGGATCCGAGCTCCACGTG
B11: Aptdkk-11 (ssDNA)
DNA: CGTACGGTCGACGCTAGCCATCCAGCTCCCTTTATTCCCTCTGTACCCTCCTGGGATCCGAGCTCCACGTG
B12: Aptdkk-4 (ssDNA)
DNA: CGTACGGTCGACGCTAGCTGCACGCTTTTCCCTCCTTTTCTCGTCTGACCGCGGGATCCGAGCTCCACGTG
B13: Aptdkk-15 (ssDNA)
DNA: CGTACGGTCGACGCTAGCACGTTCAGATACCTTTTTTCCCCTTTGTTCTGCCGGGATCCGAGCTCCACGTG
B14: Aptdkk-7 (ssDNA)
DNA: CGTACGGTCGACGCTAGCAGCCCCCTTCCTTTCTTCCTCGACCTCCCTCCGCAGGATCCGAGCTCCACGTG
B15: Aptdkk-10 (ssDNA)
DNA: CGTACGGTCGACGCTAGCACTCTCCACGTTTTTCCACCTCCTTCCTCCTTTGCGGATCCGAGCTCCACGTG
B16: Aptdkk-2 (ssDNA)
DNA: CGTACGGTCGACGCTAGCTGGTGTTGGGGTGGGTTGGTGGGTATTTTGGCGGTGGATCCGAGCTCCACGTG
B17: Aptdkk-14 (ssDNA)
DNA: CGTACGGTCGACGCTAGCCTGTGCAGTTGGTTGGTTATGGTTGGGACTGTCAGGATCCGAGCTCCACGTG

One data set addresses T1, DKK1 (Dickkopf-1), full-length. In words: ELONA; room temperature. The conditions noted are these: tags: His6; label: biotin. The protocol:
(§1) Enzyme linked oligonucleotide assay (ELONA): 160 ng DKK1 per well and negative target were coated in a 96-well microtiter plate by incubating at 4° C. overnight through hydrophobic interaction. Non-binding sites in wells were blocked with bull serum albumin (BSA) at room temperature for 1 hour, and then washed with DNA-binding buffer 4 times for 5 minutes each. The biotinylated aptamer candidates/RS with an appropriate concentration were added to each well and incubated at room temperature for 45 minutes with continuous gentle shaking. After binding, the plate was washed with washing buffer 4 times for 5 minutes each to remove non-specific and weakly binding sequences. 100 μl streptavidin-horseradish peroxidase (HRP) (1:10000 dilute into PBST+0.1% BSA) was added to each well, and incubated for 30 minutes, and washed for 4 times with the binding buffer. 50 μl 3,3′,5,5′-tetramethylbenzidine (TMB) as a HRP substrate was added to each well and incubated for 20 minutes. 50 μl 2M H₂SO₄ was added to terminate the reaction. The absorbance at 450 nm was measured with a microplate reader (Molecular Device i3x). Data was analyzed with Origin software. A binding curve was generated and KD was calculated with a non-linear curve fitting model logistic.
Aptamer candidates with significant specificity and Candidate 3 as a negative control were used to determine the binding affinity against DKK1. Candidates 1, 2, 4, and 14 had concentrations of (0, 62.5 nM, 125 nM, 250 nM, 500 nM, 1000 nM, 2000 nM, and 4000 nM), Candidates 7, 10, 15, and 16 had concentrations of (0, 23.44 nM, 46.86 nM, 93.75 nM, 187.5 nM, 375 nM, 750 nM, and 1500 nM), and other candidates had concentrations of (0, 0.18 nM, 0.74 nM, 2.96 nM, 11.84 nM, 47.35 nM, 189.39 nM, and 757.58 nM). […] Six candidates (aptdkk-5, 13, 20, 19, 6, and 1) were rich in G. The other five sequences (aptdkk-9, 18, 12, 17, and 8) were not rich in G.
The Kd is a measure of binding affinity in units of concentration. For B1, the affinity, expressed as Kd, was 4.2 nM.

The molecule B2 came in with a Kd of 8.2 nM.

Turning to B3, binding was put at a Kd of 50.4 nM.

B4 yielded a Kd of 104 nM.

For B5, the affinity, expressed as Kd, was 38.2 nM.

Still in this data set, the particulars now being: tags: His6; label: biotin; G-rich, predicted G4.
On to B6, for which the Kd was 344 nM.

As to B7, the Kd was 1.1 nM.

For the molecule B8, the dissociation constant (Kd) was 29.4 nM.

Turning to B9, the Kd is 9.7 nM.

The target is the same in another data set. Put plainly: BLI. The following applies: tags: His6. Here is the method: The specificity against DKK-1 was determined with 1 μM of each aptamer/RS for 19 potential sequences with the highest occurrence rate in the 30th round by ELONA. […] Next, the binding affinity against DKK1 was determined for candidate aptamers by BLL. DKK1 protein was applied at gradient concentrations of 0 nM, 3.125 nM, 6.25 nM, 12.5 nM, 25 nM, 50 nM, 100 nM, and 200 nM.
CATTGTCTCAGCGCATGTGTTCAGTTCTTGTGTGT (ssDNA) [D30-2] displayed a Kd of 2.89 nM.

Consider ATGTCCATTTGCGAGTAGGTGTTTGAGTGAGGTGA (ssDNA) [D30-1], for which the Kd came out at 5.34 nM.

For ATGCCCCTCCTCTGTTGAACTGTTTACCCCTTTGA (ssDNA) [D30-14], the Kd turned out to be 2.54 nM.

Regarding CTGTTCTAACGTGGTTGACCCCCCTTTGCTTTGAC (ssDNA) [D30-9], the Kd came out at 2.42 nM.

In turn, TACCTTCTGCTCGATGTGTTCAGTGTGTTGTGTGT (ssDNA) [D30-19] came in with a Kd of 20.1 nM.

In turn, TCGTGCTTGATTCCATGCTTGGCCGCCTTCTCGTG (ssDNA) [D30-12] returned a Kd of 5.99 nM.

For the molecule TGCTGAACTTTACGTGATTCTAGTCGCTGACCGCG (ssDNA) [D30-4], the Kd is 23 nM.

TATGGTTTCCCTACATGTGTTCAGTGTTTGTGTGT (ssDNA) [D30-13]: the Kd is 1.67 nM.

Take TCCTCTTCCTTTGGCTAGGTTGGTTAGGTTGGTGC (ssDNA) [D30-10]: the Kd turned out to be 1.97 nM.

The molecule ATGTAAATCGATTCCTCTGGCCGCATCGCGCTTTA (ssDNA) [D30-16] returned a Kd of 1.9 nM.

In turn, TGTAGATAGAGGGGTTGGTGTGGTTGGCGCTATCC (ssDNA) [D30-7] showed a Kd of 5.5 nM.

As for CTTCTTGTCCCTCGATGTGTTCAGTGTTTGTGTGT (ssDNA) [D30-3], binding was put at a Kd of 2.64 nM.

Take CAGTCTTAGTGCTCATGTGTTCAGTGTTTGTGTGT (ssDNA) [D30-17]: the Kd amounted to 20.1 nM.

In turn, TGCATCTTCCTTCTTCGATTCTATGCTCGGCCGCG (ssDNA) [D30-8] displayed a dissociation constant Kd of 3.19 nM.

As to AATTTCGATAGTCCATGTGTTCAGTGCCTGTGTGT (ssDNA) [D30-15], the Kd stood at 2.92 nM.

Take TCTGCTTTCACGTACTAGGTTGGTTAGGTTGGTGT (ssDNA) [D30-18]: binding was characterised by a dissociation constant (Kd) of 20.8 nM.

A further data set shares this target. In words: ELONA; specificity High at 1 uM; Kd not given. The following applies: tags: His6; label: biotin. Here is the method: as §1
The specificity of 1 μM of each adapter/RS against DKK-1 was determined for 20 potential sequences with the highest occurrence rate (Table 4) by ELONA and the absorbance at 450 nm was detected.
Take B10: the binding result was “binds”.

For the molecule B11, the binding result was “binds”.

On to B12, for which the binding result is “binds”.

Turning to B13, the binding result is “binds”.

For the molecule B14, the binding result is listed as “binds”.

As to B15, the binding result was “binds”.

The data set is the same for the next values; noted with them: tags: His6; label: biotin; G-rich, predicted G4.
B16: the binding result was “binds”.

For the molecule B17, the binding result was “binds”.
